Data as given in the domain aggregation screens of Martell et al. (2025).

Assay: soluble fraction after stress (log2 fold change); higher = more stays soluble; pooled small domains, quantitative proteomics
Details: stress: pH 4
How it was run: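 Aggregation propensity is read out as the fold change in how much of each domain remains soluble after acid stress. The custom small-domain libraries were pooled, held at pH 4 and analysed with high-throughput quantitative proteomics. On the log2 scale used, higher values mean more of the domain stayed soluble.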

Q: Which “soluble fraction (log2)” value does the source give for “HMDDTRLELTLLGKIHNDEEINKQSHINVNIKNGVILLTGESPRREITERILTLARTFEHTRQIVNQIAT” here?
A: Its value is -0.515.

Q: For “HMDDVIDVYATYDKSAEGVLSNIQLFSNQKKTTPITPESGKIYIDVEGNYQFRWTGTQYATV”, which “soluble fraction (log2)” value is on record?
A: Its value is -0.09.

Q: Which “soluble fraction (log2)” value does the source give for “HMDDYRSLRGQEKAAIFLMSLSQEQAAKIFANLDDEEIKEISQAMSSLGTVGSEIIERLFVEFAEQVSS” here?
A: The value was -1.08.

Q: With “HMDEARLAVASNLIRLRTDAGMTQAELGEKLNYSDKTISKWERAEAIPDAFVLKQIGELFHVSVDFLLRTH” as the sequence, how does the “soluble fraction (log2)” value read?
A: Its value is 0.1.

Q: With “HMDEDTWKLYKRAYKKYYARYMKGNMSEEAFKTWAAQAARDRDAAIEQVKAALDENLKAQVIERLKEELNR” as the sequence, how does the “soluble fraction (log2)” value read?
A: The value was 0.22.

Q: For “HMDEEEKGEVEVPNLIGLTRKEAKKTLEEEGLLIETKESLKTNLDDEYEKIKSQLPKAGIKIKQGSTVYVD”, which “soluble fraction (log2)” value is on record?
A: The value was 0.183.

Q: With “HMDEGQEHYVKETDLPFYSEADPASSVIFPLVLNQKLIEKERKDDWIRALEPTTGLVGWVLLKSLSPQQLS” as the sequence, how does the “soluble fraction (log2)” value read?
A: The value was -1.59.

Q: For “HMDEIELLLQDAIQKLPEKQRMVFTLRYYDNLPYEEISKILDMSVSTLKTNYHYAKSKIEQYILDHS”, which “soluble fraction (log2)” value is on record?
A: Its value is -0.839.

Q: For “HMDEKPPHEALSNREFQVLQLLAQGRSVGQIAQQLTLSANTISTYRARIFDKLGLHNPADLFSYAARHRLT”, which “soluble fraction (log2)” value is on record?
A: Its value is 0.111.

Q: Which “soluble fraction (log2)” value does the source give for “HMDELNFGNFEGTRIFVQRTARKKSIALSIRDGTIVILAPRHIPNQEIQELITTNTDWIRAKLSQHAETKR” here?
A: The value was -0.264.

Q: For “HMDELVYVPNITGKTVEEARTELQKRDLGLNIAGHQFSDEFGKGRIISQDPAAGSRLKVNRSISVIVSSGQ”, which “soluble fraction (log2)” value is on record?
A: Its value is 0.00524.

Q: For “HMDENVVLRKVAREAFVIEYVRGIRAIDPGIGGPKLWLMYKREFGDNDTVGRDTFEDILDRNNLKVRI”, which “soluble fraction (log2)” value is on record?
A: The value was -0.363.

Q: Which “soluble fraction (log2)” value does the source give for “HMDEPADVAIFDGFRQMSEDELKKLYESLNLAMTFKDFLHIQNYFKNEENREPSVTEIRVLDTYWSDH” here?
A: The value was -0.321.

Q: With “HMDEPVDRLSPREQEVLALMAEGRSNAAIAHRLSITEKAVAKHINSIFTKLDLPLDEDDHRRVRAVLAWLR” as the sequence, how does the “soluble fraction (log2)” value read?
A: Its value is -0.464.

Q: With “HMDESIPVITYKDSVYANPKAFADAHKLPYKSLHNALSKARKEGKVRFMYKQYNFHLDNNGYIVAVS” as the sequence, how does the “soluble fraction (log2)” value read?
A: Its value is -0.195.

Q: With “HMDESLLDYALREIKARIQNGTYPPGTKLSTQEISDSLGISRTPVVAAINRLVAQGVAEAIPRRGTIVAR” as the sequence, how does the “soluble fraction (log2)” value read?
A: The value was 0.015.

Q: With “HMDETFTITFDPNGGTLNGSKTKTVSLGDIVYGKLPTASKTGYSFIGWFTEKEGGEQISSATKIIASDLTL” as the sequence, how does the “soluble fraction (log2)” value read?
A: The value was -0.204.

Q: Which “soluble fraction (log2)” value does the source give for “HMDETPESIFAKANELYPKYIKYFYTEQEYYSKVEEYINLYEFQKNSTYILGKDLEEFLEEYITNKQ” here?
A: The value was -1.51.

Q: Which “soluble fraction (log2)” value does the source give for “HMDEWDDGDKPKLKITLYADDDYYFASGFSKSSVSLSGSDGTVTSVSRSSSDTLIVYVTLDALD” here?
A: Its value is -0.845.

Q: For “HMDEYILTLDEVKELLKSKDYDDLKNVLKWSNKFQKDTIIQTAISEKVSDANVINIIKEITGQDITSLIV”, which “soluble fraction (log2)” value is on record?
A: The value was -1.12.

Q: Which “soluble fraction (log2)” value does the source give for “HMDEYTREQFVADMEEGRVREVTIHPNSEVPTGYIRVELANGADMKLYVTDIVEAEELVRSYGFDPPVRDV” here?
A: The value was -0.56.

Q: Which “soluble fraction (log2)” value does the source give for “HMDFDFHALGREIKRKRKDKGWTQEYLAQLLDRTPRSIMYMENRGQHPSLNILFKIATLLEISIDQFFF” here?
A: Its value is 0.158.

Q: With “HMDFDQELFDKIVEATMDEARAAMDTDDKNVREERWNKLIEHWHELFLEDYPEMDKYLEEITYKFQKNPAT” as the sequence, how does the “soluble fraction (log2)” value read?
A: The value was -1.23.

Q: With “HMDFEVGTVKWFNTKKGYGFITRDQGEDIFVHFRNIKGQGRRSLSDGERVSFVVTHGDKGLQADQVSP” as the sequence, how does the “soluble fraction (log2)” value read?
A: The value was -1.18.

Q: With “HMDFFTAAPEEDEIGKRIDVYIAEYKEELSRSRVQKLIENGLVTVNGKAVKSNYKLRKGDILEVEIPDPE” as the sequence, how does the “soluble fraction (log2)” value read?
A: The value was -0.00543.

Q: With “HMDFGPDSAAPLADGSAPEGFDVKGNADSMLYHEPDGRWYDATVAEVWFRTAEAAQAAGFTKAGS” as the sequence, how does the “soluble fraction (log2)” value read?
A: Its value is -2.02.

Q: For “HMDFNNQLKRIRESNGLTQEQLAKILNVSRQSISSWEVGRNFPDLEMIVIISKEFNISLDQLIMG”, which “soluble fraction (log2)” value is on record?
A: The value was -1.03.
